Numbering of substitutions follows the chain as printed.
What was measured:
[1] = biological target: T1, hiR1-FL-WT-T7 (human, UniProt Q96CC6 1-855); experiment: FACS, MEF-DKO-hiR1-FL-WT-T7 cells
T1 construct: on MEF-DKO cells
T1 sequence: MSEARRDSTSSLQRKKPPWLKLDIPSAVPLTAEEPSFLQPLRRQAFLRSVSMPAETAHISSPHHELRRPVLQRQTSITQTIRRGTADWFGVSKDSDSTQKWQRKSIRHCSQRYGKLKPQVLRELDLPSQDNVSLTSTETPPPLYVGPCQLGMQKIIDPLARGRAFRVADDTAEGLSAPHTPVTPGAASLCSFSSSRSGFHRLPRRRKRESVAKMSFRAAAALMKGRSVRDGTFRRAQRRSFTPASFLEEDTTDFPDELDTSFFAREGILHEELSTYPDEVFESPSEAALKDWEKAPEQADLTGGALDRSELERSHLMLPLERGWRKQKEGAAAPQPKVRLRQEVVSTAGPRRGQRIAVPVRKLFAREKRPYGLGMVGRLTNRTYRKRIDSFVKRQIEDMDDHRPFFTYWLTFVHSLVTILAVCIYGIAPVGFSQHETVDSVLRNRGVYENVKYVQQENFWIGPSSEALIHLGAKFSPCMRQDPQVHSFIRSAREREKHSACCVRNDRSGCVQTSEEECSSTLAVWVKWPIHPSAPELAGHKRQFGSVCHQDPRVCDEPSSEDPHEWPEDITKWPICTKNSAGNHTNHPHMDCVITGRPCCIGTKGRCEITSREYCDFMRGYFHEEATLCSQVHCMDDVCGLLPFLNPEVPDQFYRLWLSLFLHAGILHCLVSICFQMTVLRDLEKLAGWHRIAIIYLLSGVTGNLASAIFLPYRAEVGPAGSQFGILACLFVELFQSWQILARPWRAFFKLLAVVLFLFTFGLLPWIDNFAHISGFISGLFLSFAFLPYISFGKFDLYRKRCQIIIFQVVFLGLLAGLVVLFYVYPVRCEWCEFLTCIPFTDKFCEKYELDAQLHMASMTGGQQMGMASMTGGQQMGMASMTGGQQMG

[2] = biological target: T2, hiR2-FL-D538L-T7 (human, UniProt Q6PJF5 1-856); experiment: FACS, MEF-DKO cells, 3 µg/ml
T2 sequence: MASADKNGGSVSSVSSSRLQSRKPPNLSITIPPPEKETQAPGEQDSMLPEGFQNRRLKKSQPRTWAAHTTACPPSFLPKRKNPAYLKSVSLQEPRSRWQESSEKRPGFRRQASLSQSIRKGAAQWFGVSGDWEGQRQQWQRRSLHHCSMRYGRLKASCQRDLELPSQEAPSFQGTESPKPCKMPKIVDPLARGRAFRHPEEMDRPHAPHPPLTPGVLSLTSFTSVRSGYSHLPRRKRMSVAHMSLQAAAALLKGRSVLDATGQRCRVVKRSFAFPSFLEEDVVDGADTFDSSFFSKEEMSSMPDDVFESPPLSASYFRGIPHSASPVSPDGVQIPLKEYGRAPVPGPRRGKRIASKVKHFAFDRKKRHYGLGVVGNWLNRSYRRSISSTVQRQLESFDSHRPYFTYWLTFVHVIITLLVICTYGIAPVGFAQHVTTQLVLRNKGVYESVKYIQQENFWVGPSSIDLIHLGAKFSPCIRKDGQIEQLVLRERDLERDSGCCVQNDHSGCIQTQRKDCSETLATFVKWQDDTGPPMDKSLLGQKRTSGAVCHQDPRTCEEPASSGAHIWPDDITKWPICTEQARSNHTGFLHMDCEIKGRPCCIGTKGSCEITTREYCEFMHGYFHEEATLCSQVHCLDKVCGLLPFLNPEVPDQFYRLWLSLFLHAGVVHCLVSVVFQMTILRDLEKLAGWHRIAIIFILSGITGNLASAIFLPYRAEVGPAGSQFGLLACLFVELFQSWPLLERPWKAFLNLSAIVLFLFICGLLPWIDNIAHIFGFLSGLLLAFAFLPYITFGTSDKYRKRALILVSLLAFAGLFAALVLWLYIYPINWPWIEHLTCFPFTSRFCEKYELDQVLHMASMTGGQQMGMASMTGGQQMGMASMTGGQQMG

[3] = biological target: T3, hiR2-FL-S545F-T7 (human, UniProt Q6PJF5 1-856); experiment: FACS, MEF-DKO cells, 3 µg/ml
T3 sequence: T2 sequence with L538D, S545F

B1: antibody 48 (antibody, V domains shown)
VH: QVQLQQSGTELVRPGTSVKVSCKASGYAFTNYLIEWVKQRPGQGLEWIGVINPGSGFTKYNEKFKGKATLTADKSSSTVYMHLSSLTSEDSAVYFCARGLYRAMDYWGQGTSVTVSS
VL: DIQMTQSPASQSASLGESVTITCLASQTIATWLAWYQQKPGKSPQLLIYGATTLADGVPSRFSGGGSGTKFSFKISSLQAEDFVSYYCQQLYSTPYTFGGGTKLEIK
notes: mouse IgG, kappa light chain; also called clone #48; purified antibody 48
binding result [1]: no binding (tested: 3 µg/ml) | loss of binding vs wild type [2]: ≥ 30% | loss of binding vs wild type [3]: ≥ 30%
